These binders were tested against T1, human C-C motif chemokine receptor 8 (CCR8) (human, UniProt P51685 1-355) (assay: FACS (MFI-PE) on CHO-K1 hCCR8 cells, bars at five doses).
T1 construct: whole, on cells; also called human CCR8; hCCR8
Procedure: PE Goat anti-Human IgG Fc Secondary Antibody (eBioscience™, Invitrogen) was added to each well and incubated at 4° C. for 30 mins. Samples were washed twice with FACS buffer. The mean florescence intensity (MFI) of PE was evaluated by MACSQuant Analyzer 16.

T1 sequence (P51685 whole entry): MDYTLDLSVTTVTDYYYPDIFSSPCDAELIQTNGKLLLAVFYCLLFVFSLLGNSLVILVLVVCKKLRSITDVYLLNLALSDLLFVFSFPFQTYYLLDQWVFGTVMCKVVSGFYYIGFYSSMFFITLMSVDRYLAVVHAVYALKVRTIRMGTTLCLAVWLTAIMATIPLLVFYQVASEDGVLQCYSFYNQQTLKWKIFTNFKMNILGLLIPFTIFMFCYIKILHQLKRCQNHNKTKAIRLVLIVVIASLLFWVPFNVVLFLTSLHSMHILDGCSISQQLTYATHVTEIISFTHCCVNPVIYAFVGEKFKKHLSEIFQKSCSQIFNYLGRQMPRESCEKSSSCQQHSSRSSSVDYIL

| Binder | binding result |
| --- | --- |
| Hu200C9B9-16 (antibody, V domains shown, humanized) VH: EVQLVESGGGLVQPGGSLRLSCAASGFSFNTYVMNWVRQAPGKGLNWVARIRTKSNNYATFYVDSVKDRFTISRDDSENSLYLQMNSLKTEDTAVYYCVSGTITRLGAGLDYWGQGTLVTVSS VL: DIVMTQSPLSLPVTPGEPASISCRSSKSLLHSNGNTYLYWFLQKPGQSPQLLIYRMSNLASGVPDRFSGSGSGTAFTLKISRVEAEDVGVYYCMQHLEYPFTFGGGTKLEIK | binds |
| Hu195H8D10-5 (antibody, V domains shown, humanized) VH: EVQLVESGGGLVQPGGSLRLSCAASGFNFNTYVMNWVRQAPGKGLEWVARIRTKSNNYATYYADSVKDRFTISRDDSKNSLYLQMNSLKTEDTAVYYCVSGTITRLGGGLDYWGQGTLVTVSS VL: DIVMTQSPLSLPVTPGEPASISCRSSKRLLHSNGNTYLYWYLQKPGQSPQLLIYRMSNLASGVPDRFSGSGSGTDFTLKISRVEAEDVGVYYCMQHLEYPFTFGGGTKLEIK | binds |
| Hu195H8D10-1 (antibody, V domains shown, humanized) VH: EVQLVESGGGLVQPGGSLRLSCAASGFNFNTYVMNWVRQAPGKGLEWVGRIRTKSNNYATYYADSVKDRFTISRDDSKNSLYLQMNSLKTEDTAVYYCARGTITRLGGGLDYWGQGTLVTVSS VL: DIVMTQSPLSLPVTPGEPASISCRSSKRLLHSNGNTYLYWYLQKPGQSPQLLIYRMSNLASGVPDRFSGSGSGTDFTLKISRVEAEDVGVYYCMQHLEYPFTFGGGTKLEIK | binds |
| Hu195H8D10-9 (antibody, V domains shown, humanized) VH: EVQLVESGGGLVQPGGSLRLSCAASGFNFNTYVMNWVRQAPGKGLEWVARIRTKSNNYATYYADSVKDRFTISRDDSKSSLYLQMNSLKTEDTAVYYCVSGTITRLGGGLDYWGQGTLVTVSS VL: DIVMTQSPLSLPVTPGEPASISCRSSKRLLHSNGNTYLYWYLQKPGQSPQLLIYRMSNLASGVPDRFSGSGSGTDFTLKISRVEAEDVGVYYCMQHLEYPFTFGGGTKLEIK | binds |
| Hu200C9B9-11 (antibody, V domains shown, humanized) VH: EVQLVESGGGLVQPGGSLRLSCAASGFSFNTYVMNWVRQAPGKGLNWVARIRTKSNNYATFYVDSVKDRFTISRDDSKNSLYLQMNSLKTEDTAVYYCVSGTITRLGAGLDYWGQGTLVTVSS VL: DIVMTQSPLSLPVTPGEPASISCRSSKSLLHSNGNTYLYWYLQKPGQSPQLLIYRMSNLASGVPDRFSGSGSGTAFTLKISRVEAEDVGVYYCMQHLEYPFTFGGGTKLEIK | binds |
| Hu195H8D10-2 (antibody, V domains shown, humanized) VH: EVQLVESGGGLVQPGGSLRLSCAASGFNFNTYVMNWVRQAPGKGLEWVGRIRTKSNNYATYYADSVKDRFTISRDDSKNSLYLQMNSLKTEDTAVYYCARGTITRLGGGLDYWGQGTLVTVSS VL: DIVMTQSPLSLPVTPGEPASISCRSSKRLLHSNGNTYLYWFLQKPGQSPQLLIYRMSNLASGVPDRFSGSGSGTDFTLKISRVEAEDVGVYYCMQHLEYPFTFGGGTKLEIK | binds |
| Hu200C9B9-8 (antibody, V domains shown, humanized) VH: EVQLVESGGGLVQPGGSLRLSCAASGFSFNTYVMNWVRQAPGKGLEWVARIRTKSNNYATFYVDSVKDRFTISRDDSKNSLYLQMNSLKTEDTAVYYCVSGTITRLGAGLDYWGQGTLVTVSS VL: DIVMTQSPLSLPVTPGEPASISCRSSKSLLHSNGNTYLYWFLQKPGQSPQLLIYRMSNLASGVPDRFSGSGSGTAFTLKISRVEAEDVGVYYCMQHLEYPFTFGGGTKLEIK | binds |
| Hu195H8D10-12 (antibody, V domains shown, humanized) VH: EVQLVESGGGLVQPGGSLRLSCAASGFNFNTYVMNWVRQAPGKGLEWVARIRTKSNNYATYYADSVKDRFTISRDDSKSSLYLQMNSLKTEDTAVYYCVSGTITRLGGGLDYWGQGTLVTVSS VL: DIVMTQSPLSLPVTPGEPASISCRSSKRLLHSNGNTYLYWFLQKPGQSPQLLIYRMSNLASGVPDRFSGSGSGTAFTLKISRVEAEDVGVYYCMQHLEYPFTFGGGTKLEIK | binds |
| Hu200C9B9-1 (antibody, V domains shown, humanized) VH: EVQLVESGGGLVQPGGSLRLSCAASGFSFNTYVMNWVRQAPGKGLEWVGRIRTKSNNYATFYVDSVKDRFTISRDDSKNSLYLQMNSLKTEDTAVYYCARGTITRLGAGLDYWGQGTLVTVSS VL: DIVMTQSPLSLPVTPGEPASISCRSSKSLLHSNGNTYLYWYLQKPGQSPQLLIYRMSNLASGVPDRFSGSGSGTDFTLKISRVEAEDVGVYYCMQHLEYPFTFGGGTKLEIK | binds |
| Hu200C9B9-15 (antibody, V domains shown, humanized) VH: EVQLVESGGGLVQPGGSLRLSCAASGFSFNTYVMNWVRQAPGKGLNWVARIRTKSNNYATFYVDSVKDRFTISRDDSENSLYLQMNSLKTEDTAVYYCVSGTITRLGAGLDYWGQGTLVTVSS VL: DIVMTQSPLSLPVTPGEPASISCRSSKSLLHSNGNTYLYWYLQKPGQSPQLLIYRMSNLASGVPDRFSGSGSGTAFTLKISRVEAEDVGVYYCMQHLEYPFTFGGGTKLEIK | binds |
| Hu200C9B9-2 (antibody, V domains shown, humanized) VH: EVQLVESGGGLVQPGGSLRLSCAASGFSFNTYVMNWVRQAPGKGLEWVGRIRTKSNNYATFYVDSVKDRFTISRDDSKNSLYLQMNSLKTEDTAVYYCARGTITRLGAGLDYWGQGTLVTVSS VL: DIVMTQSPLSLPVTPGEPASISCRSSKSLLHSNGNTYLYWFLQKPGQSPQLLIYRMSNLASGVPDRFSGSGSGTDFTLKISRVEAEDVGVYYCMQHLEYPFTFGGGTKLEIK | binds |

Next, values leading:

| binding result | Binder |
| --- | --- |
| binds | Hu200C9B9-5 (antibody, V domains shown, humanized) VH: EVQLVESGGGLVQPGGSLRLSCAASGFSFNTYVMNWVRQAPGKGLEWVARIRTKSNNYATFYVDSVKDRFTISRDDSKNSLYLQMNSLKTEDTAVYYCVSGTITRLGAGLDYWGQGTLVTVSS VL: DIVMTQSPLSLPVTPGEPASISCRSSKSLLHSNGNTYLYWYLQKPGQSPQLLIYRMSNLASGVPDRFSGSGSGTDFTLKISRVEAEDVGVYYCMQHLEYPFTFGGGTKLEIK |
| binds | Hu195H8D10-13 (antibody, V domains shown, humanized) VH: EVQLVESGGGLVQPGGSLRLSCAASGFNFNTYVMNWVRQAPGKGLEWVARIRTKSNNYATYYADSVKDRFTISRDDSESSLYLQMNSLKTEDTAMYYCVSGTITRLGGGLDYWGQGTLVTVSS VL: DIVMTQSPLSLPVTPGEPASISCRSSKRLLHSNGNTYLYWYLQKPGQSPQLLIYRMSNLASGVPDRFSGSGSGTDFTLKISRVEAEDVGVYYCMQHLEYPFTFGGGTKLEIK |
| binds | Hu200C9B9-12 (antibody, V domains shown, humanized) VH: EVQLVESGGGLVQPGGSLRLSCAASGFSFNTYVMNWVRQAPGKGLNWVARIRTKSNNYATFYVDSVKDRFTISRDDSKNSLYLQMNSLKTEDTAVYYCVSGTITRLGAGLDYWGQGTLVTVSS VL: DIVMTQSPLSLPVTPGEPASISCRSSKSLLHSNGNTYLYWFLQKPGQSPQLLIYRMSNLASGVPDRFSGSGSGTAFTLKISRVEAEDVGVYYCMQHLEYPFTFGGGTKLEIK |
| binds | Hu200C9B9-14 (antibody, V domains shown, humanized) VH: EVQLVESGGGLVQPGGSLRLSCAASGFSFNTYVMNWVRQAPGKGLNWVARIRTKSNNYATFYVDSVKDRFTISRDDSENSLYLQMNSLKTEDTAVYYCVSGTITRLGAGLDYWGQGTLVTVSS VL: DIVMTQSPLSLPVTPGEPASISCRSSKSLLHSNGNTYLYWFLQKPGQSPQLLIYRMSNLASGVPDRFSGSGSGTDFTLKISRVEAEDVGVYYCMQHLEYPFTFGGGTKLEIK |
| binds | Hu195H8D10-14 (antibody, V domains shown, humanized) VH: EVQLVESGGGLVQPGGSLRLSCAASGFNFNTYVMNWVRQAPGKGLEWVARIRTKSNNYATYYADSVKDRFTISRDDSESSLYLQMNSLKTEDTAMYYCVSGTITRLGGGLDYWGQGTLVTVSS VL: DIVMTQSPLSLPVTPGEPASISCRSSKRLLHSNGNTYLYWFLQKPGQSPQLLIYRMSNLASGVPDRFSGSGSGTDFTLKISRVEAEDVGVYYCMQHLEYPFTFGGGTKLEIK |
| binds | Hu200C9B9-10 (antibody, V domains shown, humanized) VH: EVQLVESGGGLVQPGGSLRLSCAASGFSFNTYVMNWVRQAPGKGLNWVARIRTKSNNYATFYVDSVKDRFTISRDDSKNSLYLQMNSLKTEDTAVYYCVSGTITRLGAGLDYWGQGTLVTVSS VL: DIVMTQSPLSLPVTPGEPASISCRSSKSLLHSNGNTYLYWFLQKPGQSPQLLIYRMSNLASGVPDRFSGSGSGTDFTLKISRVEAEDVGVYYCMQHLEYPFTFGGGTKLEIK |
